The text below walks through data of patent US20240042006A1 (KOREA UNIVERSITY RESEARCH AND BUSINESS FOUNDATION SEJONG …, published 2024).

Sequences and labels used below:
B1: PCNA2dm (other)
chain: MGSSHHHHHHSSGLVPRGSHMMKAKVIDAVSFSYILRTVGDFLSEANFIVTKEGIRVSGIDPSRVVFLDIFLPSSYFEGFEVSQEKEIIGFKLEDVNDILKRVLKDDTLILSSNESKLTLTFDGEFTRSFELPLIQVESTQPPSVNLEFPFKAQLLTITFADIIDELSDLGEVLNIHSKENKLYFEVIGDLVTVKVELSTDNGTLLEASGADVSSSYGMEYVANTTKMRRASDSMELYFGSQIPLKLRFKLPQEGYGDFYIAPRAD
notes: also called second scaffold fragment 210; PCNA2 S172V/A174V mutant subunit
B2: PCNA2 (other, Sulfolobus solfataricus, UniProt Q97Z84 1-245, looked up)
chain: MKAKVIDAVSFSYILRTVGDFLSEANFIVTKEGIRVSGIDPSRVVFLDIFLPSSYFEGFEVSQEKEIIGFKLEDVNDILKRVLKDDTLILSSNESKLTLTFDGEFTRSFELPLIQVESTQPPSVNLEFPFKAQLLTITFADIIDELSDLGEVLNIHSKENKLYFEVIGDLSTAKVELSTDNGTLLEASGADVSSSYGMEYVANTTKMRRASDSMELYFGSQIPLKLRFKLPQEGYGDFYIAPRAD
notes: also called PCNA2 wild-type subunit
B3: PCNA3 (other, Sulfolobus solfataricus, UniProt P57765 1-244, looked up)
chain: MKVVYDDVRVLKDIIQALARLVDEAVLKFKQDSVELVALDRAHISLISVNLPREMFKEYDVNDEFKFGFNTQYLMKILKVAKRKEAIEIASESPDSVIINIIGSTNREFNVRNLEVSEQEIPEINLQFDISATISSDGFKSAISEVSTVTDNVVVEGHEDRILIKAEGESEVEVEFSKDTGGLQDLEFSKESKNSYSAEYLDDVLSLTKLSDYVKISFGNQKPLQLFFNMEGGGKVTYLLAPKV
notes: also called PCNA3 wild-type subunit
B4: PCNA1dm (other)
chain: MFKIVYPNAKDFFSFINSITNVTDSIILNFTEDGIFSRHLTEDKVLMAIMRIPKDVLSEYSIDSPTSVKLDVSSVKKILSKASSKKATIELTETDSGLKIIIRDEKSGAKSKIKIKAEKGQVEQLTEPKVNLAVNFTTDESVLNVIAADVTLVGEEMRISTEEDKIKIEAGEEGKRYVAFLMKDKPLKELSIDTSASSSYSAEMFKDAVKGLRGFSAPTMVSFGENLPMKIDVEAVSGGHMIFWIAPRL
notes: also called first scaffold fragment 110; PCNA1 T112K/Y114K mutant subunit

Numbering of substitutions follows the chain as printed. Names may count otherwise.

Holding throughout (assay): BLI (BLItz, ForteBio); the partner on the sensor is not stated
In test [1] the target is T1, PCNA3dm (Sulfolobus solfataricus).
T1 construct: also called third scaffold fragment 310; PCNA3 Y73F/S170V mutant subunit
T1 chain: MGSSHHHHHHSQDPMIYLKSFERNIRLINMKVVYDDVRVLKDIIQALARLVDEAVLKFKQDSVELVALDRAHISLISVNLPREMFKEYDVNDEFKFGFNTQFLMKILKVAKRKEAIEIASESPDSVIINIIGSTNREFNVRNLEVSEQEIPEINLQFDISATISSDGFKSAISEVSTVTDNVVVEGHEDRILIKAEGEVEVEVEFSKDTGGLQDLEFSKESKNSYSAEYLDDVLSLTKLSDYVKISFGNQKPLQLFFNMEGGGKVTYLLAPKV

Test [2] has as its target T2, PCNA1 (Sulfolobus solfataricus, UniProt P57766 1-249).
T2 construct: also called PCNA1 wild-type subunit
T2 sequence (looked up): B4 chain with K112T, K114Y

For test [3], the target named is B2.
Test [4] has as its target B1.

The Kd is the equilibrium constant for the complex coming apart. With B1, in test [1], the dissociation constant Kd came to 571 nM. Take B2: the Kd in test [2] came to 6.31 nM. In turn, B3 showed a Kd in test [3] of 3.17 µM. Turning to B4, the Kd in test [4] turned out to be 2.65 nM.
